Laboratory results: patent US12618835B2, “Multiplex microelectrode array for detection of proteases as biomarkers” (Kansas State University Research Foundation, priority 2021, dated 2026)
Where “and” joins values, the source holds several entries; their conditions need not be identical. Equal entries are not always repeated. Entries after “also recorded” stand apart in the source; their conditions may differ. Where no end group is shown, it is not given here. [ ]: non-standard residue; d: D form. The star is where a group is joined. aminomethylferrocene = [Fe+2].c1cc[c-](CN*)c1.c1cc[cH-]c1; Ava = NCCCCC(=O)O

Tests used:
cathepsin B [1] = molecular target: T1, cathepsin B (Homo sapiens, UniProt P07858); test: Screening of peptide-Fc substrates for cathepsin B (electrochemical measurements, fluorogenic assays, HPLC-MS); assay type: biochemical; conditions: for proteolysis rate by cathepsin B compared to other candidates: library of nine peptide-Fc substrates
Source text: A library of nine peptide substrates was examined initially for proteolysis using cathepsin B (Table S1). […] The order and amino acid sequence of the peptide substrates were designed according to the literature reported sequences with minor modifications. Among the nine peptides, three most reactive peptide substrates, i.e., H-3, H-15, and H-16 (Table 1), were selected for our studies on cathepsin B activity profiling. The peptides were designed based on literature reports and synthesized using a solid-phase microwave peptide synthesizer detailed in the Supporting Information below. For example, peptide H-15, a representative peptide, was made by the coupling of H-Ala-2-chlorotrityl resin with various N-fluorenylmethyloxycarbonyl-amino acids (N-Fmoc-amino acids) sequentially, condensing with the linker N-Boc-NH—(CH2)4—CO2H, cleavage of the peptide from the resin, re-protection of the amino group of linker, bonding with (aminomethyl)ferrocene, and removal of the protecting group.
We have designed and synthesized nine different peptide-Fc substrates containing 6-8 amino acids (listed in Table S1 below) for proteolysis by cathepsin B based on the specific recognition reported in literature and tested the cathepsin B activities on these peptide-Fc substrates by the combination of electrochemical measurements (using Au disk electrodes and VACNF nanoelectrode arrays), fluorogenic assays and HPLC-MS analysis.

cathepsin B [2] = molecular target: T1, cathepsin B; test: Electrochemical (AC voltammetry) proteolysis of peptide-Fc substrates on 3x3 Au MEA, Example 1; assay type: biochemical; set-up: purchased R&D Systems Inc. (Minneapolis, MN); conditions: for 1/τ AVG: average of 3 channels per peptide, 50 mM MES buffer pH=5.0, FIG. 8; for average values of 1/τ: three peptides on one MEA, 3 channels each, 50 mM MES pH=5.0
Source text: N-Fluorenylmethyloxycarbonyl (Fmoc) protected amino acids, amino acid attached 2-chlorotrityl resins, 1-[bis(dimethylamino)methylene]-1H-1,2,3-triazolo[4,5-b]pyridinium 3-oxide hexafluorophosphate (HATU), and 2-(1H-benzotriazol-1-yl)-1,1,3,3-tetramethyluronium hexafluorophosphate (HBTU) were purchased from Chem-Impex International, Inc. (Wood Dale, IL) and AAPPTEC LLC (Louisville, KY). Potassium hexacyanoferrate (II) trihydrate, potassium nitrate, 1-ethyl-3-(3-dimethylaminopropyl)carbodiimide (EDC), N-hydroxysulfosuccinimide (Sulfo-NHS), 6-mercapto-1-hexanol, and 6-mercapto-1-hexanoic acid were obtained from Sigma-Aldrich (St. Louis, MO). Dithiothreitol (DTT), sodium phosphate dibasic heptahydrate (Na2HPO4·7H2O), sodium phosphate monobasic (NaH2PO4) and 2-(4-morpholino)ethanesulfonic acid ([…]) were purchased from Fisher Scientific (Hampton, NH). […] Cathepsin B solutions were activated by incubation in 25 mM MES buffer (pH=5.0) containing 5 mM DTT for 15 min before proteolysis experiments.
Electrochemical measurements were performed using an Ivium n-Stat Potentiostat (Eindhoven, The Netherlands) outfitted with five dual channel modules, allowing up to ten independent working electrodes to function simultaneously with a common reference and counter electrodes. […] In this study, the nine leads from the potentiostat (FIG. 9b) were interfaced with a breakout box, which was then connected to a custom-built electrochemical cell via a ribbon cable (FIG. 9c). The sensor chip consists of nine lithographically patterned Au working microelectrodes placed in the custom-built electrochemical cell (FIG. 9d) and electrical contact was made via pogo pins. All measurements were performed using a common mercury/mercurous sulfate reference electrode (Hg/Hg2SO4, MSE) filled with a saturated solution of K2SO4 (CH Instruments, Austin, TX) and a common Pt wire counter electrode.
Prior to use, the MEAs were sonicated in acetone for 1 minute, subsequently rinsed with methanol and isopropanol for 15 s and then dried by blowing with nitrogen. Next, the electrodes were placed in the experimental cell and electrochemically cleaned by cycling from −0.60 to 0.70 V vs. MSE in 0.10 M phosphate buffer (pH=7.4). For the experiments using an MEA modified with the same peptide-Fc substrate (i.e., H-15) on all nine microelectrodes, the whole chip was incubated in a mixture of 1.0 mM 6-mercapto-1-hexanol and 0.2 mM 6-mercapto-1-hexanoic acid in deionized water for 40 min to form a self-assembled monolayer (SAM). This step passivated the entire Au microelectrode surface while leaving adequate spacing between the exposed carboxyl functionalities. Next, the electrodes were incubated in a solution containing 2.0 mM peptide-Fc substrate (i.e., H-3, H-15, or H-16), 0.20 g/l EDC and 0.20 g/l sulfo-NHS for 2 hours at room temperature so that the peptides were covalently attached to the carboxyl groups of the SAM through the formation of amide bonds. The low ratio of carboxyl to hydroxyl groups at the SAM surface ensured a large separation between the peptide-Fc molecules which was important to reduce the steric hindrance during subsequent proteolysis measurements. Finally, the electrodes were rinsed with deionized water to remove any non-bound peptide-Fc substrate that may be physiosorbed on the surface. For multiplex experiments, the chip was masked with a ˜1.2 mm thick polydimethylsiloxane (PDMS) film punched with a 3×3 array of ˜0.7 mm diameter holes that were aligned on top of each Au microelectrodes. About 100 μl mixed thiol solution (6-mercapto-1-hexanol and 6-mercapto-1-hexanoic acid) as described above was added on the chip surface to fill all nine PDMS holes and was incubated for 40 min. Then, the microelectrodes and wells were rinsed and dried on a hot plate at 35° C. Finally, 0.50 μl of the EDC/sulfo-NHS/peptide-Fc (H-3, H-15, or H-16) reaction mixture was added to each well using a nanoinjector mounted on a x-y-z-micromanipulator and incubated for 2 h. […]

1/τ AVG (cathepsin B [2]; 6.0 nM cathepsin B) | average values of 1/τ (cathepsin B [2]; 6.0 nM cathepsin B) | proteolytic activity by cathepsin B among synthesized peptides (cathepsin B [1]; selected from about 30 synthesized peptides) | average value of 1/τ (cathepsin B [2]; CH 1-6, 6.0 nM cathepsin B, MES buffer pH=5.0) | fitted value of 1/τ (cathepsin B [2]; CH 4, 6.0 nM cathepsin B, 25 mM MES buffer pH=5.0) | 1/τ Avg (cathepsin B [2]; average of channels 1-6, H-15 modified Au MEA, 6.0 nM cathepsin B, MES buffer pH=5.0) | Substance | proteolysis rate by cathepsin B compared to other candidates (cathepsin B [1]) | 1/τ (cathepsin B [2]; individual channels 1-6 of H-15 modified Au MEA, 6.0 nM cathepsin B, MES buffer pH=5.0, FIG. 7)
8.90 s⁻¹ | (8.9±1.1)×10^−4 s^−1 |  |  |  |  | H2N-(CH2)4-CO-Pro-Leu-Ala-Gly-Val-Ala-NH-CH2-Fc ([Ava]PLAGVA-aminomethylferrocene) [Peptide H-16] | most reactive; also recorded: higher proteolysis rates | 
6.79 s⁻¹ | (6.8±1.8)×10^−4 s^−1 | highest proteolytic activity | (6.63±0.87)×10^−4 s^−1 | 0.000684 s⁻¹ | 0.000663 s⁻¹ | H2N-(CH2)4-CO-Pro-Leu-Ala-Phe-Val-Ala-NH-CH2-Fc ([Ava]PLAFVA-aminomethylferrocene) [Peptide H-15] | most reactive; also recorded: higher proteolysis rates | 0.000684 s⁻¹ and 0.000779 s⁻¹ and 0.000645 s⁻¹ and 0.00055 s⁻¹ and 0.000734 s⁻¹ and 0.000588 s⁻¹
7.36 s⁻¹ | (7.4±0.9)×10^−4 s^−1 |  |  |  |  | H2N-(CH2)4-CO-Pro-Leu-Arg-Phe-Gly-Ala-NH-CH2-Fc ([Ava]PLRFGA-aminomethylferrocene) [Peptide H-3] | most reactive; also recorded: higher proteolysis rates | 
